Results as given in patent US20210017293 (published 2021).
Read-outs that look alike come from different tables or passages of the source.

T1: human TNFR1 (human, UniProt P19438)
T1 chain: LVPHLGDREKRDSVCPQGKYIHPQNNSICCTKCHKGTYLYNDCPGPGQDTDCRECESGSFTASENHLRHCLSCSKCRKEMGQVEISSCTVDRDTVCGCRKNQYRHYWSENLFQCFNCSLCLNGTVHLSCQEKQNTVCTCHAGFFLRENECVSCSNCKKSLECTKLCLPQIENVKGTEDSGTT


Assays:
[1] = molecular target: T1, human TNFR1; test: ELISA
[2] = molecular target: T1, human TNFR1; test: ELISA
[3] = molecular target: T1, human TNFR1; test: ELISA
[4] = molecular target: T1, human TNFR1; test: SPR
[5] = molecular target: DMS30038-R (DMS30051) (human); test: SPR 37C

| EC50 [2] | EC50 [3] | Binder | further results |
| --- | --- | --- | --- |
|  | 1750 pM | DOM1H-131-206 Q13A (antibody, V domains shown) VH: EVQLLESGGGLVAPGGSLRLSCAASGFTFAHETMVWVRQAPGKGLEWVSHIPPDGQDPFYADSVKGRFTISRDNSKNTLYLQMNSLRAEDTAVYHCALLPKRGPWFDYWGQGTLVTVSS |  |
| 720 pM |  | DOM1H-131-206 P14K (antibody, V domains shown) VH: EVQLLESGGGLVQKGGSLRLSCAASGFTFAHETMVWVRQAPGKGLEWVSHIPPDGQDPFYADSVKGRFTISRDNSKNTLYLQMNSLRAEDTAVYHCALLPKRGPWFDYWGQGTLVTVSS |  |
| 720 pM |  | DOM1H-131-206 P14T + C-terminal ASTKG (antibody, V domains shown) VH: EVQLLESGGGLVQTGGSLRLSCAASGFTFAHETMVWVRQAPGKGLEWVSHIPPDGQDPFYADSVKGRFTISRDNSKNTLYLQMNSLRAEDTAVYHCALLPKRGPWFDYWGQGTLVTVSS |  |
| 910 pM |  | DOM1H-131-206 P14Q (antibody, V domains shown) VH: EVQLLESGGGLVQQGGSLRLSCAASGFTFAHETMVWVRQAPGKGLEWVSHIPPDGQDPFYADSVKGRFTISRDNSKNTLYLQMNSLRAEDTAVYHCALLPKRGPWFDYWGQGTLVTVSS |  |
| 770 pM |  | DOM1H-131-206 P14T (antibody, V domains shown) VH: EVQLLESGGGLVQTGGSLRLSCAASGFTFAHETMVWVRQAPGKGLEWVSHIPPDGQDPFYADSVKGRFTISRDNSKNTLYLQMNSLRAEDTAVYHCALLPKRGPWFDYWGQGTLVTVSS |  |
| 480 pM |  | DOM1H-131-206 P14K + C-terminal ASTKG (antibody, V domains shown) VH: EVQLLESGGGLVQKGGSLRLSCAASGFTFAHETMVWVRQAPGKGLEWVSHIPPDGQDPFYADSVKGRFTISRDNSKNTLYLQMNSLRAEDTAVYHCALLPKRGPWFDYWGQGTLVTVSS |  |
|  | 590 pM | DOM1H-131-206 P41A (antibody, V domains shown) VH: EVQLLESGGGLVQPGGSLRLSCAASGFTFAHETMVWVRQAAGKGLEWVSHIPPDGQDPFYADSVKGRFTISRDNSKNTLYLQMNSLRAEDTAVYHCALLPKRGPWFDYWGQGTLVTVSS |  |
| 660 pM |  | DOM1H-131-206 P14T + C-terminal A (antibody, V domains shown) VH: EVQLLESGGGLVQTGGSLRLSCAASGFTFAHETMVWVRQAPGKGLEWVSHIPPDGQDPFYADSVKGRFTISRDNSKNTLYLQMNSLRAEDTAVYHCALLPKRGPWFDYWGQGTLVTVSS |  |
| 460 pM |  | DOM1H-131-206 P14K + C-terminal A (antibody, V domains shown) VH: EVQLLESGGGLVQKGGSLRLSCAASGFTFAHETMVWVRQAPGKGLEWVSHIPPDGQDPFYADSVKGRFTISRDNSKNTLYLQMNSLRAEDTAVYHCALLPKRGPWFDYWGQGTLVTVSS |  |
| 460 pM |  | DOM1H-131-206 P14Q + C-terminal A (antibody, V domains shown) VH: EVQLLESGGGLVQQGGSLRLSCAASGFTFAHETMVWVRQAPGKGLEWVSHIPPDGQDPFYADSVKGRFTISRDNSKNTLYLQMNSLRAEDTAVYHCALLPKRGPWFDYWGQGTLVTVSS |  |
| 1100 pM |  | DOM1H-131-206 P14Q + C-terminal ASTKG (antibody, V domains shown) VH: EVQLLESGGGLVQQGGSLRLSCAASGFTFAHETMVWVRQAPGKGLEWVSHIPPDGQDPFYADSVKGRFTISRDNSKNTLYLQMNSLRAEDTAVYHCALLPKRGPWFDYWGQGTLVTVSS |  |

Continued, binder first:

| Binder | EC50 [2] | EC50 [3] | further results |
| --- | --- | --- | --- |
| DOM1H-131-206 P14A + C-terminal ASTKG (antibody, V domains shown) VH: EVQLLESGGGLVQAGGSLRLSCAASGFTFAHETMVWVRQAPGKGLEWVSHIPPDGQDPFYADSVKGRFTISRDNSKNTLYLQMNSLRAEDTAVYHCALLPKRGPWFDYWGQGTLVTVSS | 1470 pM |  | EC50 [1]: 4640 pM |
| DOM1H-131-206 (antibody, V domains shown) VH: EVQLLESGGGLVQPGGSLRLSCAASGFTFAHETMVWVRQAPGKGLEWVSHIPPDGQDPFYADSVKGRFTISRDNSKNTLYLQMNSLRAEDTAVYHCALLPKRGPWFDYWGQGTLVTVSS | 670 pM | 1990 pM | EC50 [1]: 1970 pM; Kd [4]: 14.3 pM |
| DOM1H-131-206 P14A (antibody, V domains shown) VH: EVQLLESGGGLVQAGGSLRLSCAASGFTFAHETMVWVRQAPGKGLEWVSHIPPDGQDPFYADSVKGRFTISRDNSKNTLYLQMNSLRAEDTAVYHCALLPKRGPWFDYWGQGTLVTVSS |  | 1220 pM |  |
| DOM1H-131-206 P14A, G44E (antibody, V domains shown) VH: EVQLLESGGGLVQAGGSLRLSCAASGFTFAHETMVWVRQAPGKELEWVSHIPPDGQDPFYADSVKGRFTISRDNSKNTLYLQMNSLRAEDTAVYHCALLPKRGPWFDYWGQGTLVTVSS |  | 2030 pM |  |
| DOM1H-131-206 C-terminal ASTK (antibody, V domains shown) VH: EVQLLESGGGLVQPGGSLRLSCAASGFTFAHETMVWVRQAPGKGLEWVSHIPPDGQDPFYADSVKGRFTISRDNSKNTLYLQMNSLRAEDTAVYHCALLPKRGPWFDYWGQGTLVTVSS |  | 1590 pM |  |
| DOM1H-131-206 P14E (antibody, V domains shown) VH: EVQLLESGGGLVQEGGSLRLSCAASGFTFAHETMVWVRQAPGKGLEWVSHIPPDGQDPFYADSVKGRFTISRDNSKNTLYLQMNSLRAEDTAVYHCALLPKRGPWFDYWGQGTLVTVSS | 640 pM |  |  |
| DOM1H-131-206 G44E (antibody, V domains shown) VH: EVQLLESGGGLVQPGGSLRLSCAASGFTFAHETMVWVRQAPGKELEWVSHIPPDGQDPFYADSVKGRFTISRDNSKNTLYLQMNSLRAEDTAVYHCALLPKRGPWFDYWGQGTLVTVSS |  | 860 pM |  |
| DOM1H-131-206 C-terminal ASTKGP (antibody, V domains shown) VH: EVQLLESGGGLVQPGGSLRLSCAASGFTFAHETMVWVRQAPGKGLEWVSHIPPDGQDPFYADSVKGRFTISRDNSKNTLYLQMNSLRAEDTAVYHCALLPKRGPWFDYWGQGTLVTVSS |  | 11900 pM |  |
| DOM1H-131-206 L11A (antibody, V domains shown) VH: EVQLLESGGGAVQPGGSLRLSCAASGFTFAHETMVWVRQAPGKGLEWVSHIPPDGQDPFYADSVKGRFTISRDNSKNTLYLQMNSLRAEDTAVYHCALLPKRGPWFDYWGQGTLVTVSS | 510 pM |  |  |
| DOM1H-131-206 C-terminal A (antibody, V domains shown) VH: EVQLLESGGGLVQPGGSLRLSCAASGFTFAHETMVWVRQAPGKGLEWVSHIPPDGQDPFYADSVKGRFTISRDNSKNTLYLQMNSLRAEDTAVYHCALLPKRGPWFDYWGQGTLVTVSS |  | 1210 pM | EC50 [1]: 2710 pM; Kd [4]: 25.3 pM |
| DOM1H-131-206 C-terminal ASTKG (antibody, V domains shown) VH: EVQLLESGGGLVQPGGSLRLSCAASGFTFAHETMVWVRQAPGKGLEWVSHIPPDGQDPFYADSVKGRFTISRDNSKNTLYLQMNSLRAEDTAVYHCALLPKRGPWFDYWGQGTLVTVSS |  | 1110 pM | EC50 [1]: 1900 pM |
| DOM1H-131-206 P14A + C-terminal A (antibody, V domains shown) VH: EVQLLESGGGLVQAGGSLRLSCAASGFTFAHETMVWVRQAPGKGLEWVSHIPPDGQDPFYADSVKGRFTISRDNSKNTLYLQMNSLRAEDTAVYHCALLPKRGPWFDYWGQGTLVTVSS | 570 pM |  | EC50 [1]: 2220 pM |
| DOM1H-131-206 C-terminal AST (antibody, V domains shown) VH: EVQLLESGGGLVQPGGSLRLSCAASGFTFAHETMVWVRQAPGKGLEWVSHIPPDGQDPFYADSVKGRFTISRDNSKNTLYLQMNSLRAEDTAVYHCALLPKRGPWFDYWGQGTLVTVSS | 1990 pM |  |  |
| DOM1H-131-206 K43A (antibody, V domains shown) VH: EVQLLESGGGLVQPGGSLRLSCAASGFTFAHETMVWVRQAPGAGLEWVSHIPPDGQDPFYADSVKGRFTISRDNSKNTLYLQMNSLRAEDTAVYHCALLPKRGPWFDYWGQGTLVTVSS |  | 670 pM |  |
| DOM1H-131-206 C-terminal S deletion (antibody, V domains shown) VH: EVQLLESGGGLVQPGGSLRLSCAASGFTFAHETMVWVRQAPGKGLEWVSHIPPDGQDPFYADSVKGRFTISRDNSKNTLYLQMNSLRAEDTAVYHCALLPKRGPWFDYWGQGTLVTVS | 500 pM |  |  |
| VEGF165 (protein) APMAEGGGQNHHEVVKFMDVYQRSYCHPIETLVDIFQEYPDEIEYIFKPSCVPLMRCGGCCNDEGLECVPTEESNITMQIMRIKPHQGQHIGEMSFLQHNKCECRPKKDRARQENPCGPCSERRKHLFVQDPQTCKCSCKNTDSRCKARQLELNERTCRCDKPRR |  |  | Kd [5]: 0.00431 pM |
